Test [1] has as its target LSD1_(172-833), lysine-specific demethylase 1 (human) (UniProt O60341).
Test [2] shares this target. Kind of test: enzyme inhibition kinetics (HRP-coupled fluorescence demethylation assay); 25 nM LSD1, substrate H3K4me1_(1-21), 25 mM Tris, 50 mM NaCl, 0.1 mg/mL BSA, pH 8, 1% DMSO; Ki by global fit of competitive inhibition for 1, 11, 24, 28, 31, 33, 34, else from IC50 by Cheng-Prusoff (substrate 20 μM).
Test [3] has the same target. The source holds these as a separate data set.

Where two headings read alike, the source gives them in different places.

For “lactam 32 (D-Glu3-Lys6 lactam-bridged H3_(1-11) K4M) (peptide)”, the % inhibition of LSD1 demethylase activity at 100 μM peptide in test [1] was less than 20%. Also, in test [2], the Ki (in general, the dissociation constant of the complex between target and ligand, obtained from inhibition or displacement) was greater than 100 µM.

In turn, “lactam 28 (Glu3-Lys6 lactam-bridged H3_(1-11) K4M) (peptide)” had a % inhibition of LSD1 demethylase activity at 100 μM peptide in test [1] of 98%. The Ki in test [2] came out at 4 µM.

“lactam 29 (A1P-substituted lactam 27) (peptide)”: the % inhibition of LSD1 demethylase activity at 100 μM peptide in test [1] is 90%. In test [2], this substance showed a Ki of 7 µM.

In test [3], “peptide 20, linear precursor of 21 (allylglycine at positions 3 and 6 of H3_(1-11) K4M)” showed a % inhibition of LSD1 demethylase activity at 100 μM peptide of 95% and an IC50 of inhibition of LSD1 demethylase activity of 10 µM.

On to “lactam 27 (Lys3-Glu6 lactam-bridged H3_(1-11) K4M) (peptide)”, for which the % inhibition of LSD1 demethylase activity at 100 μM peptide in test [1] came out at 65%. In addition, the Ki in test [2] was 31 µM.

Regarding “macrocycle 31 (D-Lys3-Glu6 lactam-bridged H3_(1-11) K4M) (peptide)”, in test [1], the % inhibition of LSD1 demethylase activity at 100 μM peptide was determined as 100%. In test [2], the Ki is 2.3 µM.

For “lactam 30 (A1P-substituted lactam 28) (peptide)”, in test [1], the % inhibition of LSD1 demethylase activity at 100 μM peptide stood at 75%. For the same substance, in test [2], the Ki stood at 22 µM.

For the origin of these results see paper PMC7057333.
